This is an account of results in the DeepSol protein solubility set.

A short description of this data set: soluble on expression in E. coli; label from the status in PepcDB or PDB records.
On to “AHHHHHHGSMLKEVHELLNRIWGDIFELREELKEELKGFTVEEVSEVFNAYLYIDGKWEEMKYPHPAFAVKPGGEVGATPQGFYFVFAFPKEELSKEFIEDVIRAFEKLFIYGAENFLEDFYNFEHPISGDEVWDRIVNSDEEMINFEVDLGFDKEEVKREIKRFIELARRYNLL”, for which the “soluble on expression in E. coli” value was “soluble”.
The result for “MDESIDDVQETRTIAIPLKDSHEDEVIEINCSELPDGEEVLQILEAEEAKLSYWIEVALEYYRQDRVDLFMMILESAGSRAGLEYEGVKQDQMRALDILAAYWMTQGYREKAKDKKSDFFSKATVLFNTADKIAMYEWSHLTVRAWFYLFERDKSTNKYELADQQFNYVVKTNPKNVLPLIGKAVIAFNKKDYKTAIYYFRKAIRQCRHTIADLRVGIGHCFAKMGMMDKAKTAFERAMEIEPYNVSAMCGLGIILLNTYDHDSLKHAVSLFGRSYNLQTDHPVALIHLANHFFFKKEIERAWTLAWHAATYNDCDSIKAEAFYQMGRCRHAQGQFDGAYKYYYQARQANNGEHTLAHYGLGQMYIHRNEIEEAIKCFDTVHKRLPNNTDTMKILGSLYAHVQLNDPAQTAEARQKGRDVLGKYLAVENDDYEACIDLAQLLEATDPKRSLELYENAIDLLVTNESIQPQPEMLNNVGALYMSMKQYEKAEHHFKRAKERLEEQLNTDEGSLLLERRSAPEKSHLLTIRYNLALCLEHLCRTVEAEQMYKDIVKECPGYIDGYLRLGCITRDRHQVYESSLWLKQGVQFDQASPIVWTLIGNLHFAKNEWMPAQKKFEFILSKIFNNKIPDPYSLVALGNVWFEQLLNPSRKKEDEKKYIDRALQMYQKALKLQPKNMYAANGIGCVLAYKRNWNDARDVFSQVRESTSEFYDVWLNIAHVCMEREQWMAAVQMYSSAMKKFRKENDSTLQHYLAKAYYRANMLNEAKEALECAMLDQLDNTQLKFNYAIVLKKSAKEVLRGHKMTSEQVTAAIDDLKFADKIFQYISKNDDRQSSHTGMRISRTICAEEAKNCKDLLTQAKHKLAAAQTQDEEERRLMEKQEKEKIALQNKMIEEARAKEEAEKQKLEDMKNLRLSFIEMTKDVLRLPEIVEEKRRGGGGRKRRNDDGDEFVNDSSDAGNYDGEEGGEDGERRERRKKDKAAKKASRKKRERRDSGGPDSNRRDEKKRKRKEERDRKLQEKLSAKQSAKIKSRAFLSSSESSDDDKPKPAADSSDDEVDPRPPVDEFDSPTRTDSDSDRETTTKKKKKKAVVDSDEGSVSGSGSGSDNDDKPIIGGSDDDDDDKPAGGNSRDSDGSDAPKKKVIESDSD” reads “not soluble”; that for “MSFRGTVKWFSKDKGYGFITREDTNADVFVHFTDIQMEGFKTLQKGQKVEFDVVEDTKGPRAKNVRVLGE”, “soluble”; that for “MSARLDAQIAFLKQADRLKSVERANVLLDLSRPENSAEHSWHLALWALVLSPFAAPDVDVDRAIRMLLLHDLVEIETGDHPIHEVTDWQAVERAERAAARKLFGLLPPDQAADFHTLWTEFDADETADARYAKMLDRCQPMFQVLCADTPRPDHVEVVRENLSSGRAAYLAEAFPEAHAHARALLERHPPVTGGFGDRLEFLAEADRLKTVLRASRLMDDSRFENSAEHSWHIMLYAWVLGEYAAAPVDIDRVLRMLLLHDLVEIDAGDNPIHGNVDHAAQEALEAAAAERLFGLLPPDQGAGLRAIWQEFETAQSADALFGKAVDRVQTPIANLENGGGSWVTYDVSLQQLVARVGTPVSRGAPGLWDWLFPQLSDCFTRLGLRLLEHHHHHH”, “soluble”.
The result for “MGSDKIHHHHHHMTASVNVPLNSRGKLAASLPAEQLAEITALFEFRRTGYSLDAPFYTDRSIFNIDMEAIFGQHWIFAASTAELPEPGDYVTVDYGPYSLIVLRNDDGAVNVLHNVCRHRGARVLTEAAGSTGNLVCGYHSWTYSPEGNLIHASAPGETKFDKSCFGLKRAHGREVAGLIFVCIADDAPTDFDETAKIFEPYLAPHDLSKTKIAYQQNIIEEGNWKLVMENNRECYHCDGHPELACSLFPTWGLTEGLIPPHLEEVWNRNKEAQSSLEERCRRYGLPYEVVEQLDTRIAGIRISRESLDGEGESFSADGRRLSKKLLGDLPDFRLGRCSMHLQPNSWFHFLGDHVITFGVFPINEHQSLVRTTWLVADDAVEGVDYDLEKLTYTWKQTNLQDKAFVELCQQGAGSPAYEPGPYMKSEYQVEAFINWYVQRVQEHLA” reads “not soluble”.
In the case of “MGQNIELHESLIRLIPYGEVPLPTVEQVQEHIYSYLNYLSESAIEQDVLFRVLLSTEERETLARAALGLTLEEISDFLRLTVKERLSSNGITIDATVTPMVVEYKTRLLSQMGIELGKPALYSFGGLDLLREWLNRRRKLFTQEARNLQLPQPKGILLEHHHHHH” it was “not soluble”; in that of “MSQGQSKKLDVTVEQLRSIYHQFHDILEEKTDLHLPKKEYDDDAVRREVQIQLQEFLLSAMTMASKSLEVVNADTVGKTVKQLIMESQEKYMEPFDLDLNEQVRKMYQEWEDETVKVAQLRQTGPAKINEVYNNSKDEYLAQLDGRIGVLQARMMQQQSADHDDSTDDADDHINWEHIKQDYVASLNELYQTQQDLPKVRYNVEKVKRLMDFLEED”, “soluble”; in that of “GMPALITYRTTVQEDWVDYNGHLRDAFYLLIFSYATDALMDRIGLDADSRGQSGNSLFTLEAHINYLHEVKLGTEVWVQTQILGFDRKRLHVYHSLHRAGFDEVLAASEQMLLHVDLAGPQSAPFGHTTVCRLNHLVEQQEGAQAPQYMGRTIKLPA”, “soluble”.
In the case of “MSLDKPRLQFSIREQVQQLLGGLAGLKNYQVPSKETIADNAYLKQMGVALDVLTKEVEKLKSDDGVSAEAMGDYLYRQVQWVNNIVPTQMDLNRLFATMNTAGIQLEQADILKAKLFKHIHTDKAQYDAMWVACEHLENYFERNVRKVFPNADWYHIEPEHLASFDAERFAAKDETSEALSGLSIAELASQVKASSIPDNTEQEKFETYDLDVETVYCRPIIKFPLLLIHAYRVYLALNDHNDIEPRLHSDRLLEIFDPLINGDEQSVKLFIETLWQVRYQFDRWVVKWVERDDATDAQLGLTYQSRSKSNDTYYINRTQKELTDIVLLQSVRNFTGERSAQYWLTPFLSGLIRSSIKQDSVALELLENIDNKMSLSVDTQKEASFALAEGIEPNCQSWQSQSTYFAKSLGTSFEHYWFQKLEYLIWKKMKASESSLPSEELNKFKKYRITSKNSVEHVHPQNDEYNSRLDCETLNSFGNLVLLSPGENSSYSNQDVDKKRIDFERKSHFDALKLREIFGVKGQGLWGKQQIDNHLEDMMAVFAQHYKEGHHHHHH”, the “soluble on expression in E. coli” value is listed as “soluble”.
In the case of “MCLAIPMQIESIDGFTARCAAKGVWRDVSLFMMQDAPPEVGDFVMVHVGYAIQKVTEADARSAWELLDQILEENGA” it was “not soluble”; in that of “MRSDVIKKGLERVPHRSLLKALGITDDEMRRPFIGIVSSWNEIIPGHVHLDKVVEAVKAGVRMAGGVPFVFPTIGICDGIAMDHRGMKFSLPSRELIADSIEIVASGFPFDGLVFVPNCDKITPGMMMAMGRLNIPSVLISGGPMLAGRYNGRDIDLITVFEAVGGYKVGKVDEETLKAIEDLACPGAGSCAGLFTANTMNSLAEALGIAPRGNGTVPAVHAKRLRMAKEAGMLVVELVKRDVKPRDIVTLDSFMNAVMVDLATGGSTNTVLHLKAIAESFGIDFDIKLFDELSRKIPHICNISPVGPYHIQDLDDAGGIYAVMKRLQENGLLKEDVMTIYLRKIGDLVREAKILNEDVIRPFDNPYHKEGGLGILFGNLAPEGAVAKLSGVPEKMMHHVGPAVVFEDGEEATKAILSGKIKKGDVVVIRYEGPKGGPGMREMLSPTSAIVGMGLAEDVALITDGRFSGGSHGAVIGHVSPEAAEGGPIGIVKDGDLIEIDFEKRTLNLLISDEEFERRMKEFTPLVKEVDSDYLRRYAFFVQSASKGAIFRKPAAALEHHHHHH”, “soluble”.
The result for “MGHHHHHHSHMACYIYQLPSWVLDDLCRNMDALSEWDWMEFASYVITDLTQLRKIKSMERVQGVSITRELLWWWGMRQATVQQLVDLLCRLELYRAAQIILNWKPAPEI” reads “not soluble”; that for “REVADTAYDRTLLASARAIADGLYEKDGTLRADVPYVALDTFAYDSAGRIFYQVNDIHGRMISGYENLPAAPADTLRTDDYPALAKFYDGVYQGVDVRVVSLLQPVSEPSMSGMAEIRVAETEGARERMARS”, “not soluble”; that for “PEGSRDILFEECTIKNNIENILRNSYINVGYEEVRSPTLEFYDVYNLENQPISQEKMYKLFDNTGRILVLRPDMTTPIARICATKLKNRVYPLKLSYTGNIYRMNKALNGKISEITQSGIEILGFSSLKADAEVIITAIKAILKTGLKNFKIEIGQVEFFKSIISDTALKEQDTEKLRNFIENKNFSKVEEFILRNSDLIGETSSKVLMNLPNLFGGKEVIEKAEQLTSNKQAIEALKKVRDLYDIVKRAGFGEYILIDLGMVQHINYYTGLIFRGYAHGIGDDLLSGGRYDKLLGQFGYDIPATGLAINVDNLVAALDDCVRENL”, “not soluble”.
The result for “FDNLTDRLSRTLRNISGRGRLTEDNVKDTLREVRMALLEADVALPVVREFINRVKEKAVGHEVNKSLTPGQEFVKIVRNELVAAMGEENQTLNLAAQPPAVVLMAGLQGAGKTTSVGKLGKFLREKHKKKVLVVSADVYRPAAIKQLETLAEQVGVDFFPSDVGQKPVDIVNAALKEAKLKFYDVLLVDTAGRLHVDEAMMDEIKQVHASINPVETLFVVDAMTGQDAANTAKAFNEALPLTGVVLTKVDGDARGGAALSIRHITGKPIKFLGVGEKTEALEPFHPDRIASRILGMGDVLSLIEDIESKVDRAQAEKLASKLKKGDGFDLNDFLEQLRQMKNMGGMASLMGKLPGMGQIPDNVKSQMDDKVLVRMEAIINSMTMKERAKPEIIKGSRKRRIAAGCGMQVQDVNRLLKQFDDMQRMMKKMK” reads “soluble”; that for “MANLIYLTLNGDNQGLISSGCSSQPSIGNKAQTAHIDQIMIYEFMHGLNRDQNVNHHHLTIKKPIDKASPLLGKAICDNELLTCDFSFYRTNKFGINELFYKIKLTGAKISDIHVSISHIVVDNSVQPEESVSFSYESIIWEHCSAGTSAYSLWEDRLF”, “not soluble”.
Regarding “GRYTQIRFDEDIKRPFPELQQEFLSLLRKSVSEAVQGQKAGTFLSGGTDSSTLAGILTEVTGEPAKTYSIGFEATGYDEMHYARIAARHFATDHHEYYVTPDDVVETIPLIASVFDQPFGNASALPAYYCGRMARNDGLDLLLGGDGGDELFGGNVRYAKQYIFSLYDKIPAPLRNYLLSPFILSLPENKGPKLLRKARSYVAQATVPMPHRMETYNLLAHYGFETVFSPELLAKIDTAQPALLIERTYQDVSHARSLINRMLAFDWKFTLADNDFPKVVQACHLAGMEVAFPFVNDEILAFSLALPPEQKLKGTQLRYFFKQALRGFLPDEIITKQKQGFGLPFGVWLQTHRPLREIAADSLSDLKSRNIIRTDFIDQLLDQHLHEHASYHGTMVWLLMMLEYWFKQH”, the “soluble on expression in E. coli” value was “not soluble”.
In the case of “MGSDKIHHHHHHMNWGKYATYSEDFFEKLTSESNQLDLYIFVQYLLHYQLSEAVDYCHQLGIALKGDIAIGIAHDSVDAWTHPELFHLDKQAGAPPDIFAVNGQNWGFPTYNWKKMAEDGYAWWKKRLTAMSNYFDAYRLDHILGFFRIWQMPEDSVRGLLGQFSPAIALSAEEIENSYGIPLRQWGLERFINPFIKDWVIDEIFGRDNRDWIIQTFLDYIGNGNYTFQNEYNNQKKVEKAQLEDWVREGLYKLHENIILLKDDENPEKYHPRISLIQTISFREFGDDYKGRLEKLYNDYFYGRNYEFWKEKAYEKLPVLKDATNMLACGEDLGMVPANVPDVMNHLNILRLIIERMPSDNRFVSPLNEVPYLSVLTTSSHDTSPLRAWWEENHEEIQRYYNEVMGWYGEAPYYASAEIIQEIVKRHLNSNAMMVILPIQDWLAMSEQLRKEDAKSEQINIPANPYHYWNYRLHCQLETLIDNQDWTEFLKKFIKESKRAY” it was “not soluble”; in that of “MYILLCCAAGMSTSMVVRKMQEEAKKQGKDYKIKAVDSELVKLEIKNADVVLIGPQVKYLFPAVQFLAKSYDIPVAIIEQRDYGMCDGLKVLKQAEQLVLA”, “not soluble”.
